Data set [1] concerns the molecule itself. As to the kind of experiment: SEC-MALS; Superdex 200 Increase, 20 mM Na-Hepes pH 7.0, 200 mM NaCl; DNAJC12 3 mg/mL, TH, TH:DNAJC12 complex, TH(1-158) and TH(155-497) 2 mg/mL.
In another data set the target is T1, DNAJC12-F193G (human, UniProt Q9UKB3-1 1-198, F193G).
T1 construct: source: E. coli BL21-CodonPlus(DE3)-RIL, purified (HisTrap, TEV cleavage, TALON, amylose, SEC); not shown: His6, N-terminal, cleaved; MBP, N-terminal, cleaved
Kind of data set: BLI; biotinylated TH or TH variant immobilised on streptavidin sensors; DNAJC12 or variant 0.01-4 μM in solution; PBS, 0.02% Tween-20, 0.5 mg/mL BSA, 25 °C; responses fitted to a one-site hyperbola. The conditions noted are these: both partners purified.

T1 sequence (Q9UKB3 whole entry F193G): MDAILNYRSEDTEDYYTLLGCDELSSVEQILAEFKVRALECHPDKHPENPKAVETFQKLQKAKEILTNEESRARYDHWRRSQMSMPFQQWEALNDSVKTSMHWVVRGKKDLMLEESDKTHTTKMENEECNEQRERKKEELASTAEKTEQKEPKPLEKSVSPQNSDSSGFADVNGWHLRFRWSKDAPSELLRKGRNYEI

B1: TH catalytic and oligomerization domains, TH(155-497) (domain or fragment)
chain: not shown
modifications: biotinylated with EZ-Link NHS-PEG4-Biotin for BLI only
Take B1: in data set [1], the “stoichiometry N” value came out at 4.

B2: Tyrosine hydroxylase, wild-type (hTH1) (enzyme)
chain: not shown
modifications: biotinylated with EZ-Link NHS-PEG4-Biotin for BLI only
Turning to B2, the Kd in the data set with DNAJC12-F193G came out at 1180 nM.

B3: TH regulatory domain, TH(1-158) (domain or fragment, human, UniProt P07101-3 1-158, looked up)
chain: MPTPDATTPQAKGFRRAVSELDAKQAEAIMSPRFIGRRQSLIEDARKEREAAVAAAAAAVPSEPGDPLEAVAFEEKEGKAVLNLLFSPRATKPSALSRAVKVFETFEAKIHHLETRPAQRPRAGGPHLEYFVRLEVRRGDLAALLSGVRQVSEDVRSP
modifications: biotinylated with EZ-Link NHS-PEG4-Biotin for BLI only
For the molecule B3, in data set [1], the “stoichiometry N” value was determined as 2.

B4: TH-R202H (TH-p.R202H), variant associated with TH deficiency (enzyme)
chain: not shown
modifications: biotinylated with EZ-Link NHS-PEG4-Biotin for BLI only
B4: the “stoichiometry N” value in data set [1] came to 4.

The record behind these values is article PMC11926245 (Nature Communications, 2025).
